Source: publication PMC11667226 (Theranostics, 2025)
Where two headings read alike, the source gives them in different places. Non-standard residues stand in square brackets, D forms with d. Residues, ends and D or L forms follow the SMILES beside them. *: point of attachment. X1 = CC1(C)C(=CC=CC=CC=CC2=[N+](CCCCCC(=O)*)c3ccc4ccccc4c3C2(C)C)N(CCCCS(=O)(=O)[O-])c2ccc3ccccc3c21; Cha = N[C@@H](CC1CCCCC1)C(=O)O

Conditions: for TEAE Mild (Grade 1): No. events / TEAE Mild (Grade 1): No. patients (%) / TEAE Moderate (Grade 2): No. events / TEAE Moderate (Grade 2): No. patients (%) / TEAE Severe (Grade 3): No. events / TEAE Severe (Grade 3): No. patients (%): CTCAE v5.0
Method: ECGs were taken at baseline, 1 hr ± 15 min, and 44 hrs ± 6 h post-injection. Blood samples (including lever and kidney parameters) were sampled at baseline, 12 hrs ± 4 hrs, and 44 hrs ± 6 hrs post-injection. All laboratory analyses were performed by the Department of Biochemistry at Rigshospitalet. AE assessments were graded according to the National Cancer Institute “Common Terminology Criteria for Adverse Events (CTCAE)” version 5.0. There was no data monitoring committee in this trial.

CC(C)C[C@H](NC(=O)[C@H](Cc1ccc(O)cc1)NC(=O)[C@@H](CCCNC(=N)N)NC(=O)[C@@H](CO)NC(=O)[C@H](Cc1ccccc1)NC(=O)[C@H](CC1CCCCC1)NC(=O)[C@H](CC(=O)O)NC(=O)[C@H](CCC(=O)O)NC(=O)[C@H](CCC(=O)O)NC(=O)CCCCC[N+]1=C(C=CC=CC=CC=C2N(CCCCS(=O)(=O)[O-])c3ccc4ccccc4c3C2(C)C)C(C)(C)c2c1ccc1ccccc21)C(=O)N[C@@H](Cc1c[nH]c2ccccc12)C(=O)N[C@@H](CO)C(=O)O [FG001, ICG-Glu-Glu-AE105] (X1-EED[Cha]F[dS][dR]YLWS-OH; N-terminus and C-terminus assumed)
15: TEAE: No. events (FG001 16 mg i.v., n = 8)
1 (12.5%): TEAE AST increased: No. subjects (%) (FG001 16 mg i.v., N=8) | TEAE Blood creatinine increased: No. subjects (%) (FG001 16 mg i.v., N=8) | TEAE Dysgeusia: No. subjects (%) (FG001 16 mg i.v., N=8) | TEAE Hyperglycaemia: No. subjects (%) (FG001 16 mg i.v., N=8) | TEAE Hypertension: No. subjects (%) (FG001 16 mg i.v., N=8) | TEAE Hypotension: No. subjects (%) (FG001 16 mg i.v., N=8) | TEAE Hypothermia: No. subjects (%) (FG001 16 mg i.v., N=8) | TEAE Pneumonia: No. subjects (%) (FG001 16 mg i.v., N=8) | TEAE SOC General disorders and administration site conditions: No. subjects (%) (FG001 16 mg i.v., N=8)
8 (100%): TEAE: No. patients (%) (FG001 16 mg i.v., n = 8)
1 (25.0%): TEAE ALT increased: No. subjects (%) (FG001 36 mg i.v., N=4) | TEAE AST increased: No. subjects (%) (FG001 36 mg i.v., N=4) | TEAE Blood ALP increased: No. subjects (%) (FG001 36 mg i.v., N=4)
2 (40.0%): TEAE SOC Investigations: No. subjects (%) (FG001 4 mg i.v., N=5) | TEAE Mild (Grade 1): No. patients (%) (FG001 4 mg i.v., n = 5) | TEAE Moderate (Grade 2): No. patients (%) (FG001 4 mg i.v., n = 5)
4: TEAE Hypalbuminaemia: No. events (FG001 4 mg i.v., N=5) | TEAE SOC Investigations: No. events (FG001 16 mg i.v., N=8) | TEAE Moderate (Grade 2): No. events (FG001 16 mg i.v., n = 8)
1 (20.0%): TEAE AST increased: No. subjects (%) (FG001 4 mg i.v., N=5) | TEAE Blood bilirubin increased: No. subjects (%) (FG001 4 mg i.v., N=5) | TEAE Hyponatraemia: No. subjects (%) (FG001 4 mg i.v., N=5)
0 (0.0%): TEAE ALT increased: No. subjects (%) (FG001 4 mg i.v., N=5) | TEAE Blood ALP increased: No. subjects (%) (FG001 4 mg i.v., N=5) | TEAE Blood creatinine increased: No. subjects (%) (FG001 4 mg i.v., N=5) | TEAE Dysgeusia: No. subjects (%) (FG001 4 mg i.v., N=5) | TEAE GGT increased: No. subjects (%) (FG001 4 mg i.v., N=5) | TEAE Hyperglycaemia: No. subjects (%) (FG001 4 mg i.v., N=5) | TEAE Hypertension: No. subjects (%) (FG001 4 mg i.v., N=5) | TEAE Hypotension: No. subjects (%) (FG001 4 mg i.v., N=5) | TEAE Hypothermia: No. subjects (%) (FG001 4 mg i.v., N=5) | TEAE Pneumonia: No. subjects (%) (FG001 4 mg i.v., N=5) | TEAE SOC General disorders and administration site conditions: No. subjects (%) (FG001 4 mg i.v., N=5) | TEAE SOC Infections and infestations: No. subjects (%) (FG001 4 mg i.v., N=5) | TEAE SOC Nervous system disorders: No. subjects (%) (FG001 4 mg i.v., N=5) | TEAE SOC Vascular disorders: No. subjects (%) (FG001 4 mg i.v., N=5) | TEAE Severe (Grade 3): No. patients (%) (FG001 4 mg i.v., n = 5) | TEAE ALT increased: No. subjects (%) (FG001 16 mg i.v., N=8) | TEAE Blood ALP increased: No. subjects (%) (FG001 16 mg i.v., N=8) | TEAE GGT increased: No. subjects (%) (FG001 16 mg i.v., N=8) | TEAE Hyponatraemia: No. subjects (%) (FG001 16 mg i.v., N=8) | TEAE Severe (Grade 3): No. patients (%) (FG001 16 mg i.v., n = 8)
4 (50.0%): TEAE Mild (Grade 1): No. patients (%) (FG001 16 mg i.v., n = 8) | TEAE Moderate (Grade 2): No. patients (%) (FG001 16 mg i.v., n = 8)
0 (0%): FG001 related TEAEs: No. patients (%) (FG001 4 mg i.v., n = 5) | SAEs: No. patients (%) (FG001 4 mg i.v., n = 5) | FG001 related TEAEs: No. patients (%) (FG001 16 mg i.v., n = 8) | SAEs: No. patients (%) (FG001 16 mg i.v., n = 8)
1: TEAE AST increased: No. events (FG001 4 mg i.v., N=5) | TEAE Blood bilirubin increased: No. events (FG001 4 mg i.v., N=5) | TEAE Hyponatraemia: No. events (FG001 4 mg i.v., N=5) | TEAE AST increased: No. events (FG001 16 mg i.v., N=8) | TEAE Blood creatinine increased: No. events (FG001 16 mg i.v., N=8) | TEAE Dysgeusia: No. events (FG001 16 mg i.v., N=8) | TEAE Hyperglycaemia: No. events (FG001 16 mg i.v., N=8) | TEAE Hypertension: No. events (FG001 16 mg i.v., N=8) | TEAE Hypotension: No. events (FG001 16 mg i.v., N=8) | TEAE Hypothermia: No. events (FG001 16 mg i.v., N=8) | TEAE Pneumonia: No. events (FG001 16 mg i.v., N=8) | TEAE SOC General disorders and administration site conditions: No. events (FG001 16 mg i.v., N=8) | TEAE SOC Infections and infestations: No. events (FG001 16 mg i.v., N=8) | TEAE SOC Nervous system disorders: No. events (FG001 16 mg i.v., N=8) | TEAE ALT increased: No. events (FG001 36 mg i.v., N=4) | TEAE AST increased: No. events (FG001 36 mg i.v., N=4) | TEAE Blood ALP increased: No. events (FG001 36 mg i.v., N=4)
No ECG abnormalities: ECG abnormalities (ECGs at baseline, 1 hr and 44 hrs post-injection)
11: TEAE Mild (Grade 1): No. events (FG001 16 mg i.v., n = 8)
5 (62.5%): TEAE Hypalbuminaemia: No. subjects (%) (FG001 16 mg i.v., N=8) | TEAE SOC Metabolism and nutrition disorders: No. subjects (%) (FG001 16 mg i.v., N=8)
0: TEAE ALT increased: No. events (FG001 4 mg i.v., N=5) | TEAE Blood ALP increased: No. events (FG001 4 mg i.v., N=5) | TEAE Blood creatinine increased: No. events (FG001 4 mg i.v., N=5) | TEAE Dysgeusia: No. events (FG001 4 mg i.v., N=5) | TEAE GGT increased: No. events (FG001 4 mg i.v., N=5) | TEAE Hyperglycaemia: No. events (FG001 4 mg i.v., N=5) | TEAE Hypertension: No. events (FG001 4 mg i.v., N=5) | TEAE Hypotension: No. events (FG001 4 mg i.v., N=5) | TEAE Hypothermia: No. events (FG001 4 mg i.v., N=5) | TEAE Pneumonia: No. events (FG001 4 mg i.v., N=5) | TEAE SOC General disorders and administration site conditions: No. events (FG001 4 mg i.v., N=5) | TEAE SOC Infections and infestations: No. events (FG001 4 mg i.v., N=5) | TEAE SOC Nervous system disorders: No. events (FG001 4 mg i.v., N=5) | TEAE SOC Vascular disorders: No. events (FG001 4 mg i.v., N=5) | FG001 related TEAEs: No. events (FG001 4 mg i.v., n = 5) | SAEs: No. events (FG001 4 mg i.v., n = 5) | TEAE Severe (Grade 3): No. events (FG001 4 mg i.v., n = 5) | TEAE ALT increased: No. events (FG001 16 mg i.v., N=8) | TEAE Blood ALP increased: No. events (FG001 16 mg i.v., N=8) | TEAE GGT increased: No. events (FG001 16 mg i.v., N=8) | TEAE Hyponatraemia: No. events (FG001 16 mg i.v., N=8) | FG001 related TEAEs: No. events (FG001 16 mg i.v., n = 8) | SAEs: No. events (FG001 16 mg i.v., n = 8) | TEAE Severe (Grade 3): No. events (FG001 16 mg i.v., n = 8)
3 (37.5%): TEAE SOC Investigations: No. subjects (%) (FG001 16 mg i.v., N=8)
4 (80.0%): TEAE Hypalbuminaemia: No. subjects (%) (FG001 4 mg i.v., N=5) | TEAE SOC Metabolism and nutrition disorders: No. subjects (%) (FG001 4 mg i.v., N=5)
2 (25.0%): TEAE Blood bilirubin increased: No. subjects (%) (FG001 16 mg i.v., N=8) | TEAE SOC Vascular disorders: No. subjects (%) (FG001 16 mg i.v., N=8)
6: TEAE SOC Metabolism and nutrition disorders: No. events (FG001 16 mg i.v., N=8)
7: TEAE: No. events (FG001 4 mg i.v., n = 5)
5: TEAE SOC Metabolism and nutrition disorders: No. events (FG001 4 mg i.v., N=5) | TEAE Mild (Grade 1): No. events (FG001 4 mg i.v., n = 5) | TEAE Hypalbuminaemia: No. events (FG001 16 mg i.v., N=8)
2: TEAE SOC Investigations: No. events (FG001 4 mg i.v., N=5) | TEAE Moderate (Grade 2): No. events (FG001 4 mg i.v., n = 5) | TEAE Blood bilirubin increased: No. events (FG001 16 mg i.v., N=8) | TEAE SOC Vascular disorders: No. events (FG001 16 mg i.v., N=8)
4 (80%): TEAE: No. patients (%) (FG001 4 mg i.v., n = 5)
